Test results taken from publication PMC12294753, “Development of INER-PP-F11N as the Peptide-Radionuclide Conjugate Drug Against CCK2 Receptor-Overexpressing Tumors” (International Journal of Molecular Sciences, 2025).
Entries after “also recorded” stand apart in the source; their conditions may differ. Read-outs that look alike come from different tables or passages of the source. Each block holds one compound with its values, some of them ahead of it. Where a SMILES comes first, the peptide text is derived from it. [ ]: non-standard residue; d: D form. The star is where a group is joined. DOTA = O=C(O)CN1CCN(CC(=O)O)CCN(CC(=O)*)CCN(CC(=O)O)CC1; Butanoyl(4-(4-MePh)) = Cc1ccc(CCCC(=O)*)cc1; Nle = CCCC[C@H](N)C(=O)O; Ahx = NCCCCCC(=O)O

What was measured:
[1] = test system: pancreatic tumor PDX models; design: method as in PMID 34593598; details: cited from earlier work
[2] = test system: A431-CCK2R (−)/A431-CCK2R (+) tumor-bearing mice; test: NanoSPECT/CT imaging of tumor-bearing mice; type: in vivo; details: for radiotracer accumulation in the tumor region on NanoSPECT/CT: tail-vein injection, Lu-177-labeled
Description: (§1) To generate A431-CCK2R (+) and A431-CCK2R (−) tumor-bearing mice models, mice (3 per group) were inoculated subcutaneously with 6 × 10^6 cells, which were injected into the inner right back leg for A431-CCK2R (+) tumors and the left back leg for A431-CCK2R (−) tumors, respectively. These xenografts were monitored until the tumor volume reached approximately 200–500 mm^3 [57]. The mice were then randomized to subgroups for further experiments. The formula for calculating tumor volume (V) is V = 4/3πr^3.
The NanoSPECT/CT® plus scanner system (Mediso Medical Imaging Systems; Budapest, Hungary) was utilized to detect in vivo tumors in the in vivo animal models. Both A431-CCK2R (+) and A431-CCK2R (−) cancer cells were inoculated subcutaneously into the inner right leg and left back leg of the mice. Radiopharmaceuticals—[^111In]In-DOTA-PP-F11N, [^111In]In-DOTA-INER-PP-F11N-1, and [^111In]In-DOTA-INER-PP-F11N-2 (1 mCi)—were injected once the mean tumor volume reached approximately 200–500 mm^3. Inhalant (1–2% isoflurane) was used to anesthetize the mice during imaging acquisition. X-ray CT images and SPECT images were taken 4, 24, and 48 h after tail-vein injection. NanoSPECT imaging was acquired using nine multi-pinhole gamma detectors with high-resolution collimators. The energy window was set at 171 and 245 KeV ± 10%, the image size was set at 256 × 256, and the field of view was set at 60 mm × 100 mm.
For Lu-177, only 208 keV photons were used for imaging, with an energy window set at 208 keV ± 10%. Although Lu-177 also emits lower abundance photons at 113 keV, the 208 keV photon provides better image quality due to reduced scatter and higher energy resolution. Therefore, the gamma camera energy windows were specifically tailored to the photon emission profiles of each radionuclide to ensure optimal detection efficiency and image accuracy.
(§2) We investigated therapeutic responses in mice receiving [^177Lu]Lu-DOTA-PP-F11N, [^177Lu]Lu-DOTA-INER-PP-F11N-1, or [^177Lu]Lu-DOTA-INER-PP-F11N-2. A431-CCK2R (+) and A431-CCK2R (−) cells were implanted subcutaneously into the right and left inner hind legs of NOD/SCID mice. Once the tumors reached a volume of 200–500 mm^3, the mice were intravenously injected with either 200 μCi of [^177Lu]Lu-DOTA-PP-F11N, [^177Lu]Lu-DOTA-INER-PP-F11N-1, [^177Lu]Lu-DOTA-INER-PP-F11N-2, or PBS (as a non-radioactive control). The NanoSPECT/CT® plus scanner system (Mediso Medical Imaging Systems; Budapest, Hungary) was utilized to detect and image tumors in the mouse models. Tumor volumes were measured twice a week for 4 weeks.

A431-CCK2R (+) tumors = test: Therapeutic responses to Lu-177-labeled CCK2R analogs in CCK2R-expressing cancer-bearing mice; type: in vivo; details: 200 μCi intravenously
Description: as §1, §2

[3] = Metabolic stability analysis (radio-HPLC) in PBS at 4 °C or FBS at 37 °C; type: in vitro ADME
Description: DOTA-PP-F11N, DOTA-INER-PP-F11N-1, and DOTA-INER-PP-F11N-2 were labeled with In-111 and Lu-177 for further experiments. The detection of free In-111 after ITLC extension was defined as 0% radiolabeling efficiency. […]
To measure the labeling efficiency, ITLC was performed on glass microfiber chromatography paper impregnated with a silica gel (Agilent Technologies, Santa Clara, CA, USA) as described previously. Briefly, the ITLC sheets were developed with 10% methanol as solvent (Rf free Lu-177 = 0, Rf Lu-177-labeled compounds = 1) and measured using a radioactive scanner (AR-2000 radio-TLC […] Imaging Scanner, Bioscan, France). The sample was mixed with acetonitrile at a 1:1 (v/v) ratio, followed by centrifugation at 16,000× g for 5 min. The resulting supernatant was subsequently analyzed using HPLC with UV (220[…]) and radio detector with a Zorbax SB-C18 column (Agilent Technologies, Santa Clara, CA, USA). The flow rate was 0.8 mL/min, with the gradient mobile phase going from 90% A […] buffer (0.1% TFA in water) and 10% B buffer (0.1% TFA in acetonitrile) to 90% B buffer […] within 20 min.

A431-CCK2R (−) cells = test: In vitro binding and internalization assay, A431-CCK2R (−) cells; type: cell-based; details: 37 °C
Description: (§3) In vitro binding and internalization activities were measured using a gamma counter (WIZARD 1480, Perkin-Elmer). Briefly, A431-CCK2R (+) and A431-CCK2R (−) cells were seeded on 24-well plates (1 × 10^5 cells/well, Corning, NY, USA) for 12 h. The plated cells were treated with 30 ± 10 GBq/µmol of [^177Lu]Lu-DOTA-PP-F11N, [^177Lu]Lu-DOTA-INER-PP-F11N-1, or [^177Lu]Lu-DOTA-INER-PP-F11N-2 (1 mL/well) and then incubated at 37 °C for either 1 or 4 h. After incubation, the medium was collected, and the cells were then washed with ice-cold buffer. The medium and washed PBS were collected in tube 0. The washed cells were treated with glycine–HCl buffer (0.1 M, pH 3.0) and incubated for 10 min. After incubation, cells were washed again with glycine–HCl buffer. Both glycine-HCl buffer solutions were collected in tube 1. The washed cells were treated with 1 N NaOH (1 mL/well) and incubated for 10 min for cell lysis. After incubation, the cells were washed once with 1 N NaOH. The cell lysate solution was collected in tube 2. All tubes were analyzed using a gamma counter to detect radioactivity. Data were obtained from at least three independent experiments. The respective formulae for in vitro surface binding activity and internalization were as follows:Surface binding = tube 1/(tube 0 + tube 1 + tube 2) × 100%.Internalization = tube 2/(tube 0 + tube 1 + tube 2) × 100%.

A431-CCK2R (+) cells = test: In vitro binding and internalization assay, A431-CCK2R (+) cells; type: cell-based; design: surface binding activity / internalization activity: concentration or dose not given beside the values; details: for internalization activity / surface binding activity: A431-CCK2R (+) cells, 37 °C
Description: as §3

[4] = Biodistribution study in tumor-bearing mice; type: in vivo; details: mouse, intravenous, total radioactivity, 72 h after tail-vein injection, tumor-bearing mice
Description: as §1
Mice were sacrificed via CO2 asphyxiation 72 h after intravenous injection of 50–100 μCi (50–100 μL) of radiolabeled DOTA-PP-F11N, DOTA-INER-PP-F11N-1, or DOTA-INER-PP-F11N-2 [58]. Tumors and organs of interest were collected for further pathological examinations. The PerkinElmer 2480 Automatic Gamma Counter (PerkinElmer, Waltham, MA, USA) was used to measure radioactivity; the data are presented as the percentage injected dose per gram of tissue (%ID/g).

[5] = Histopathological examinations (H&E) of mice after radiolabeled drug administration; type: in vivo; details: light microscopy
Source text: To investigate the pathological alterations in tumor-bearing mice receiving radiopharmaceuticals, […] tissues, including tumors, heart, liver, and kidneys, were collected. The specimens were first fixed using 10% buffered neutral formalin and then embedded in paraffin. Sections of 3–5 μm thickness were stained with H&E and examined using light microscopy (40 × and 20 ×).

[6] = 4 °C PBS, 144 h after Lu-177 labeling
[7] = Lu-177-labeled, 37 °C FBS, 144 h
[8] = kidneys, read-out: radiotracer accumulation in the kidneys
[9] = tumor (A431-CCK2R (+)), read-out: tumor uptake of radiopharmaceuticals
[10] = labeled with Lu-177, each time point (Figure 2C, 4 °C PBS)

Compound: Cc1cc(-c2ccc(NC(=O)CCCC(=O)N[C@@H](CCCCNC(=O)CN3CCN(CC(=O)O)CCN(CC(=O)O)CCN(CC(=O)O)CC3)C(=O)N3CCN(CCCOc4ccc5nccc(C(=O)NCC(=O)N6CC(F)(F)C[C@H]6C#N)c5c4)CC3)c(C)c2)ccc1N=Nc1ccc2c(S(=O)(=O)O)cc(S(=O)(=O)O)c(N)c2c1O [TEFAPI-07]
tumor uptake and retention [1]: significantly enhanced tumor uptake and retention

clearance of radiotracer accumulation in the urinary bladder, time after injection ([2]; NanoSPECT/CT): ≤ 24 h
Compound: O=C([O-])CN1CCN(CC(=O)[O-])CCN(CC(=O)[O-])CCN(CC(=O)[O-])CC1.[177Lu+3] [[^177Lu]Lu-DOTA, reference compound]
tumor volume at D23 (A431-CCK2R (+) tumors): 3237.10 ± 846.25 mm^3

Compound: CCCC[C@H](NC(=O)[C@H](Cc1c[nH]c2ccccc12)NC(=O)CNC(=O)[C@H](Cc1ccc(O)cc1)NC(=O)[C@H](C)NC(=O)[C@@H](CCC(=O)O)NC(=O)[C@@H](CCC(=O)O)NC(=O)[C@@H](CCC(=O)O)NC(=O)[C@@H](CCC(=O)O)NC(=O)[C@@H](CCC(=O)O)NC(=O)[C@@H](CCC(=O)O)NC(=O)CCCCCNC(=O)[C@H](CCCCNC(=O)CCCc1ccc(C)cc1)NC(=O)CN1CCN(CC(=O)O)CCN(CC(=O)O)CCN(CC(=O)O)CC1)C(=O)N[C@@H](CC(=O)O)C(=O)N[C@@H](Cc1ccccc1)C(N)=O [[^177Lu]Lu-DOTA-INER-PP-F11N-2, metal not drawn] ({DOTA}-K(Butanoyl(4-(4-MePh)))[Ahx][dE][dE][dE][dE][dE][dE]AYGW[Nle]DF-NH2)
metabolic stability [3, 6]: more than 95%
metabolic stability [3, 7]: > 99%
internalization activity (A431-CCK2R (−) cells; 1 h): 0.25 ± 0.04 %IA/106 cells
surface binding activity (A431-CCK2R (−) cells; 1 h): 0.59 ± 0.01 %IA/106 cells
internalization activity (A431-CCK2R (−) cells; 4 h): 0.15 ± 0.18 %IA/106 cells
internalization activity (A431-CCK2R (+) cells; 1 h): 41.58 ± 3.46%
surface binding activity (A431-CCK2R (+) cells; 1 h): 5.51 ± 0.45%
internalization activity (A431-CCK2R (+) cells; 4 h): 81.26 ± 7.27%
surface binding activity (A431-CCK2R (+) cells; 4 h): 8.11 ± 2.65%
enhancement of internalization activity compared with PP-F11N (A431-CCK2R (+) cells; A431 CCK2R (+) cells, compared with conventional [^177Lu]Lu-DOTA-PP-F11N): 13.7%
radioactivity within the kidneys on NanoSPECT/CT ([2]; compared with Lu-177-labeled PP-F11N over the same period): significantly lower
radiotracer accumulation in the tumor region on NanoSPECT/CT [2]: imaging of the tumor was limited
tissue uptake at 72 h [4, 8]: 7.4 ± 1.5 %ID/g
tissue uptake at 72 h [4, 9]: 0.88 ± 0.25 %ID/g
tumor volume at D23 (A431-CCK2R (+) tumors): 1162.60 ± 275.92 mm^3
histopathological changes in the kidneys [5]: no significant histopathological changes
histopathological changes in the liver and heart [5]: no significant histopathological changes

Compound: CCCC[C@H](NC(=O)[C@H](Cc1c[nH]c2ccccc12)NC(=O)CNC(=O)[C@H](Cc1ccc(O)cc1)NC(=O)[C@H](C)NC(=O)[C@@H](CCC(=O)O)NC(=O)[C@@H](CCC(=O)O)NC(=O)[C@@H](CCC(=O)O)NC(=O)[C@@H](CCC(=O)O)NC(=O)[C@@H](CCC(=O)O)NC(=O)[C@@H](CCC(=O)O)NC(=O)CN1CCN(CC(=O)O)CCN(CC(=O)O)CCN(CC(=O)O)CC1)C(=O)N[C@@H](CC(=O)O)C(=O)N[C@@H](Cc1ccccc1)C(N)=O [[^177Lu]Lu-DOTA-PP-F11N, metal not drawn, reference compound]
metabolic stability [3, 6]: more than 95%
metabolic stability [3, 7]: below 60%
internalization activity (A431-CCK2R (−) cells; 1 h): 1.26 ± 0.06 %IA/106 cells
surface binding activity (A431-CCK2R (−) cells; 1 h): 3.42 ± 0.21 %IA/106 cells
internalization activity (A431-CCK2R (−) cells; 4 h): 1.29 ± 0.01 %IA/106 cells
surface binding activity (A431-CCK2R (−) cells; 4 h): 3.24 ± 0.15 %IA/106 cells
internalization activity (A431-CCK2R (+) cells; 1 h): 37.37 ± 3.04%
surface binding activity (A431-CCK2R (+) cells; 1 h): 6.60 ± 0.17%
internalization activity (A431-CCK2R (+) cells; 4 h): 71.44 ± 3.52%
surface binding activity (A431-CCK2R (+) cells; 4 h): 11.51 ± 3.16%
washout of radiotracer accumulation in both kidneys, time after injection ([2]; NanoSPECT/CT, accumulation from one hour): more than 48 h
radiotracer accumulation in the tumor region on NanoSPECT/CT [2]: relatively low
tissue uptake at 72 h [4, 8]: 14.2 ± 5.9 %ID/g
tissue uptake at 72 h [4, 9]: 0.33 ± 0.02 %ID/g
tumor volume at D23 (A431-CCK2R (+) tumors): 1884.72 ± 333.13 mm^3
histopathological changes in the kidneys [5]: renal tubular necrosis (arrow 1), moderate renal tubular casts (arrow 2), slight renal tubular degeneration (arrow 3), and neutrophil infiltration (arrow 4); also recorded: moderate/severe renal tubular necrosis (arrow 1), moderate renal tubular casts (arrow 2), slight renal tubular degeneration (arrow 3), and slight infiltration of neutrophils (arrow 4)
histopathological changes in the liver and heart [5]: no significant histopathological changes
histopathological changes in the kidneys ([5]; listed as PP-F11N): renal tubular necrosis and inflammation

Compound: DOTA-(Glu)6-Ala-Tyr-Gly-Trp-Nle-Asp-Phe-NH2 [DOTA-PP-F11N, reference compound]
metabolic stability ([3]; In-111-labeled, 37 °C FBS (Figure 2B)): less metabolic stability
metabolic stability ([3]; Lu-177-labeled, 37 °C FBS, 4 h): 94.6 ± 0.1%
metabolic stability [3, 7]: 56.4 ± 0.1%
metabolic stability [3, 10]: more than 90%

Compound: DOTA-Lys(-4-TBA)-6-AMBA-(Glu)6-Ala-Tyr-Gly-Trp-Nle-Asp-Phe-NH2 [DOTA-INER-PP-F11N-1]
metabolic stability [3, 7]: 99%
metabolic stability [3, 10]: more than 90%

Compound: DOTA-Lys(-4-TBA)-AHA-(Glu)6-Ala-Tyr-Gly-Trp-Nle-Asp-Phe-NH2 [DOTA-INER-PP-F11N-2]
metabolic stability [3, 10]: more than 90%
